Results: patent US20260250363A1 (AP BIOSCIENCES, published 2026)
Read-outs that look alike come from different tables or passages of the source.

How the values were obtained:
[1] = target: T1, SARS-CoV-2 Spike Protein, wild type (R&D, Cat. #10549-CV) (SARS-CoV-2, UniProt P0DTC2 16-1211); assay: competition ELISA: blocks biotin-ACE2 binding to coated spike
[2] = target: T2, SARS-CoV-2 B.1.617.2 Spike Protein (R&D, Cat. #10878-CV) (SARS-CoV-2, UniProt P0DTC2 16-1211); assay: direct ELISA on coated spike
[3] = target: T2, SARS-CoV-2 B.1.617.2 Spike Protein …; assay: competition ELISA: blocks biotin-ACE2 binding to coated spike
[4] = target: T3, SARS-CoV-2 AY.1 Spike Protein (R&D, Cat. #10922-CV) (SARS-CoV-2, UniProt P0DTC2 16-1211); assay: direct ELISA on coated spike
[5] = target: T2, SARS-CoV-2 B.1.617.2 Spike Protein …; assay: BLI (ForteBio), mAb on AHC sensor, spike in solution
[6] = target: T3, SARS-CoV-2 AY.1 Spike Protein (R&D, …); assay: as above
[7] = target: T4, SARS-CoV-2 B.1.1.529 Spike Protein (Omicron) (SARS-CoV-2, UniProt P0DTC2 16-1211); assay: as above
[8] = target: T1, SARS-CoV-2 Spike Protein, wild type …; assay: as above
[9] = target: T5, SARS-CoV-2 C.37 Spike His Protein (R&D, Cat. #10887-CV) (SARS-CoV-2, UniProt P0DTC2 16-1211); assay: as above
[10] = target: T4, SARS-CoV-2 B.1.1.529 Spike Protein …
[11] = target: T4, SARS-CoV-2 B.1.1.529 Spike Protein …; remark: listed apart in the source
[12] = target: T5, SARS-CoV-2 C.37 Spike His Protein (R&D, …); assay: competition ELISA: blocks biotin-ACE2 binding to coated spike
[13] = target: T5, SARS-CoV-2 C.37 Spike His Protein (R&D, …); assay: direct ELISA on coated spike
[14] = target: T1, SARS-CoV-2 Spike Protein, wild type …; assay: direct ELISA on coated spike
[15] = target: T3, SARS-CoV-2 AY.1 Spike Protein (R&D, …); assay: competition ELISA: blocks biotin-ACE2 binding to coated spike
[16] = target: T4, SARS-CoV-2 B.1.1.529 Spike Protein …; assay: as above
[17] = target: T5, SARS-CoV-2 C.37 Spike His Protein (R&D, …); assay: as above; remark: listed apart in the source
[18] = target: T1, SARS-CoV-2 Spike Protein, wild type …; assay: as above; remark: listed apart in the source
[19] = target: T3, SARS-CoV-2 AY.1 Spike Protein (R&D, …); assay: as above; remark: listed apart in the source
[20] = target: T2, SARS-CoV-2 B.1.617.2 Spike Protein …; assay: as above; remark: listed apart in the source
[21] = target: T6, Recombinant SARS-CoV-2 BA.2 Spike (GCN4-IZ) His Protein, CF (R&D, 11109-CV) (SARS-CoV-2, UniProt P0DTC2 16-1211); assay: BLI (ForteBio), mAb on AHC sensor, spike in solution
[22] = target: T7, SARS-CoV-2 Spike Trimer, His Tag (BA.4/Omicron) (MALS verified) (AcroBiosystems, SPN-C5229) (SARS-CoV-2, UniProt P0DTC2 16-1213); assay: as above
[23] = target: T8, SARS-CoV-2 Spike Trimer, His Tag (BA.5/Omicron) (MALS verified) (AcroBiosystems, SPN-C522e) (SARS-CoV-2, UniProt P0DTC2 16-1213); assay: as above
[24] = target: SARS-CoV-2 C.37 Spike His Protein (R&D, Cat. #10887-CV) (SARS-CoV-2, UniProt P0DTC2 16-1211); assay: direct ELISA on coated spike; no plateau within the range shown
[25] = target: SARS-CoV-2 AY.1 Spike Protein (R&D, Cat. #10922-CV) (SARS-CoV-2, UniProt P0DTC2 16-1211)
[26] = target: SARS-CoV-2 Spike Protein, wild type (R&D, Cat. #10549-CV) (SARS-CoV-2, UniProt P0DTC2 16-1211); assay: direct ELISA on coated spike; no plateau within the range shown
[27] = target: T6, Recombinant SARS-CoV-2 BA.2 Spike …; assay: competition ELISA: blocks biotin-ACE2 binding to coated spike
[28] = target: T8, SARS-CoV-2 Spike Trimer, His Tag …; assay: as above
[29] = target: T7, SARS-CoV-2 Spike Trimer, His Tag …; assay: as above
[30] = target: T4, SARS-CoV-2 B.1.1.529 Spike Protein …; assay: as above; remark: listed apart in the source

B1: anti-SARS-CoV-2 antibody clone R4-11 (antibody, V domains shown)
VH: QVQLVQSGAEVKKPGSSVKVSCKASGGAFSSYAISWVRQAPGQGLEWMGRIIPILGIANYAQKFQGRVTITADKSTSTAYMELSSLRSEDTAVYYCAGGSGYYYWGQGTTVTVSS
VL: QSVLTQPPSVSEAPGQRVTISCSGSSSNIANNAVNWYQQLPGQAPKLLIFYDDLLPSWVSDRFSGSKSGTSASLAISGLQSEDEADYYCAAWDDSLNGPVFGGGTKLTVLR
- IC50 [1]: 3.99 nM
- EC50 [2]: 0.0559 nM
- IC50 [3]: 1.14 nM
- EC50 [4]: 0.0905 nM
- Kd [5]: 1.53 nM
- Kd [6]: 2.29 nM
- Kd [7]: 7.93 nM
- Kd [8]: 4.05 nM
- Kd [9]: 1.23 nM
- EC50 [10]: 100 nM
- IC50 [11]: 24 nM
- IC50 [12]: 1.8 nM
- EC50 [13]: 0.0677 nM
- EC50 [14]: 0.0622 nM
- IC50 [15]: 0.787 nM

B2: Anti-SARS-CoV-2 #R4-11#R4-1a-10 scFv bsAb (bispecific antibody)
heavy: not shown
light: QSVLTQPPSVSEAPGQRVTISCSGSSSNIANNAVNWYQQLPGQAPKLLIFYDDLLPSWVSDRFSGSKSGTSASLAISGLQSEDEADYYCAAWDDSLNGPVFGGGTKLTVLRQPVAAPSVTLFPPSSEELQANKATLVCLISDFYPGAVTVAWKADSSPVKAGVETTTPSKQSNNKYAASSYLSLTPEQWKSHKSYSCQVTHEGSTVEKTVAPAECS
- IC50 [16]: 2.32 nM
- IC50 [17]: 1.97 nM
- IC50 [18]: 2.73 nM
- IC50 [19]: 0.715 nM
- IC50 [20]: 1.45 nM

B3: Anti-SARS-CoV-2 #R4-1a-10-#R4-11 scFv bsAb (bispecific antibody)
heavy: not shown
light: QSVLTQPSSVSAAPWQRVTISCSGSDSNIGNNPVNWYQHVPGKAPTLLIYYDNFLASKISDRFSGSKSGTSASLAISGLQSDDEADYYCASWDDSLNGVVFGGGTKLTVLRQPKAAPSVTLFPPSSEELQANKATLVCLISDFYPGAVTVAWKADSSPVKAGVETTTPSKQSNNKYAASSYLSLTPEQWKSHRSYSCQVTHEGSTVEKTVAPTECS
- IC50 [16]: 1.06 nM
- IC50 [17]: 0.897 nM
- IC50 [18]: 0.857 nM
- IC50 [19]: 0.349 nM
- IC50 [20]: 0.563 nM

B4: anti-SARS-CoV-2 antibody clone R4-21 (antibody, V domains shown)
VH: QVQLVQSGAEVKKPGESLKISCKGSGYSFTSYWIGWVRQMPGKGLEWMGIIYPGDSDTRYSPSFQGQVTISADKSISTAYLQWSSLKASDTAMYYCATQTPYYDSSDYYLGDAFDIWGQGTMVTVSS
VL: QSALTQPASVSGSPGQSITISCTGTSSDVGGYNYVSWYQQHPGKAPKLIIYDVRNRPSGVSNRFSGSKSGNTASLTISGLQAEDEADYYCGSYTSSSTLGFGGGTKLTVLG
- Kd [7]: 2.58 nM
- Kd [21]: 2.32 nM
- Kd [22]: 1.62 nM
- Kd [23]: 2.63 nM

B5: R4-7 (antibody, V domains shown)
VH: QVQLQESGGGLVQPGGSLRLSCAVSGMTLDYYAIAWFRQAPGKEREGVSRISSSDGSTSYADSVKGRFTISRDNAKNTVYLQMNSLKPEDTGVYYCAASPLTYYSGTYYFPGEYDYWGQGTQVTVSS
- EC50 [24]: 13.3 nM
- EC50 [25]: 252000 nM
- EC50 [26]: 20.4 nM

B6: Anti-SARS-CoV-2 #R4-21-# R4-1a-10 scFv bsAb (bispecific antibody)
heavy: not shown
light: QSALTQPASVSGSPGQSITISCTGTSSDVGGYNYVSWYQQHPGKAPKLIIYDVRNRPSGVSNRFSGSKSGNTASLTISGLQAEDEADYYCGSYTSSSTLGFGGGTKLTVLGQPKAAPSVTLFPPSSEELQANKATLVCLISDFYPGAVTVAWKADSSPVKAGVETTTPSKQSNNKYAASSYLSLTPEQWKSHKSYSCQVTHEGSTVEKTVAPTECS
- IC50 [27]: 0.246 nM
- IC50 [28]: 1.37 nM
- IC50 [29]: 1.04 nM
- IC50 [30]: 1.08 nM

B7: Anti-SARS-CoV-2 #R4-21-# R4-1a-51 scFv bsAb (bispecific antibody)
heavy: not shown
light: B6 light
- IC50 [27]: 0.354 nM
- IC50 [28]: 1.65 nM
- IC50 [29]: 1.14 nM
- IC50 [30]: 1.01 nM

B8: Anti-SARS-CoV-2 #R3-1a-1-# R4-1a-10 scFv bsAb (bispecific antibody)
heavy: not shown
light: NFMLTQPHSVSESPGKTVTISCTRSSGSIASKYVQWYQQRPGNSPTTVIYEDDQRPSGVPDRFSASIDSSANTASLTISGLKPEDEADYYCQSYDDNTAVFGGGTHLTVLGQPKAAPSVTLFPPSSEELQANKATLVCLVSDFYPGAVTVAWKADGSPVKVGVETTKPSKQSNNKYAASSYLSLTPEQWKSHRSYSCRVTHEGSTVEKTVAPAECS
- IC50 [27]: 0.803 nM
- IC50 [28]: 4.97 nM
- IC50 [29]: 3.51 nM
- IC50 [30]: 1.83 nM

B9: R3-1a-1/R4-1a-51 scFv (bispecific antibody)
heavy chain with C-terminal scFv: not shown
light chain: B8 light
- IC50 [27]: 3.31 nM
- IC50 [28]: 11.1 nM
- IC50 [29]: 7.74 nM
- IC50 [30]: 5.85 nM
